Target: focal adhesion kinase (FAK) (human (endogenous in HeLa), UniProt Q05397 1-1052)
Test: cell-based or functional assay

Chain of focal adhesion kinase (FAK) (Q05397 whole entry): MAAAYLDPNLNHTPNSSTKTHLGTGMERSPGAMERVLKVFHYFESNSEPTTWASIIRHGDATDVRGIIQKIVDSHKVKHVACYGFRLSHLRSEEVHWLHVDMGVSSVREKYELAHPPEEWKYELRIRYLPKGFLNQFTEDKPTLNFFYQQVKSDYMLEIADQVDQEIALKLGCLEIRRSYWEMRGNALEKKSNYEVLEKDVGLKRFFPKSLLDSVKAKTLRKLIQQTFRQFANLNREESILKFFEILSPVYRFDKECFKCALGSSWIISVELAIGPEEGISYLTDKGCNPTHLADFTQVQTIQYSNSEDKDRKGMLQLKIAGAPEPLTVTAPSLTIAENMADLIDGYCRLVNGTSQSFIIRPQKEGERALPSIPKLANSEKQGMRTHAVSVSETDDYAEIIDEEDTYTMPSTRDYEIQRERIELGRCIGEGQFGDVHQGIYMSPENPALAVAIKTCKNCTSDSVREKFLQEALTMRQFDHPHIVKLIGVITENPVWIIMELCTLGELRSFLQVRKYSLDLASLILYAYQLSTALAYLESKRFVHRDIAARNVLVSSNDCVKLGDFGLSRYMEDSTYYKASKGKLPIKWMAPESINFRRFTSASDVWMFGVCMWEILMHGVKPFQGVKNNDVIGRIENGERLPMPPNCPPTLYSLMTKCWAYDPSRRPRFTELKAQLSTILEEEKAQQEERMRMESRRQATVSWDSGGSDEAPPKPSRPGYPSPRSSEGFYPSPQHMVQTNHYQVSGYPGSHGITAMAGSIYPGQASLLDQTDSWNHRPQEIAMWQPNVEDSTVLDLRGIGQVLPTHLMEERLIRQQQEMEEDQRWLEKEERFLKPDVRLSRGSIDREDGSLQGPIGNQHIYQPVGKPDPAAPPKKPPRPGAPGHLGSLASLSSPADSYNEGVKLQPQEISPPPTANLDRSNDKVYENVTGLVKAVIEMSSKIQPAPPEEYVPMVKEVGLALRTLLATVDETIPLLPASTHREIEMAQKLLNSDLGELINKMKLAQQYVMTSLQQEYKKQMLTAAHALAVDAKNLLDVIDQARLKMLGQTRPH

B1: Cya18-Pax-LD2 (domain or fragment, UniProt P49024 125-186, looked up)
chain: KSAEPSPTMTSTSLGSNLSELDRLLLELNAVQHNPPSGFSADEVSRSPSLPNVTGPHYVIPE
  colocalisation of endogenous pY397-FAK with adhered Δtir EPEC in Cos7 cells expressing TirM-Pax-LD2, increase relative to the TirM-only negative control: 2.4 fold
